{"source": "paper PMC10653929", "about": "“Activities, substrate specificity, and genetic interactions of fission yeast Siw14, a cysteinyl-phosphatase-type inositol pyrophosphatase” (mBio, 2023)", "molecules": {"B1": {"name": "SpSiw14; Siw14-(1-287) (Schizosaccharomyces pombe 972h-) (protein)", "chain": "MAIVFPFQLEKKLISITSDRDQISMSIPEVSSHDSCLNDCHSVNSEEQAKPVCCLELNAHKDGIKVVDTSNDASTFSNSPLVPDNFGVVYPGIIYRSACPRASNFNFLESLHIRTIISLRQEEYSEEDLHYFTKHHINYYHIAMPGSKHRKNDCISSSSNPDISDVDDLVRKTLQLLLNKENWPVLLHCSRGKHRTGIVIGCLRALMNWPVGNRLQEYISFSHPKEREVDEEYIQNFSSDPSLKSSLNDLKRYISDSSSELADVVLSSESPTVQAATVNETCRSPGS", "notes": "full length aa 1-287, E. coli BL21(DE3), His10Smt3 tag removed with Ulp1, monomer by gel filtration"}}, "key": {"SpSiw14; Siw14-(1-287)": {"biological_target": "T1, SpSiw14; Siw14-(1-287) (Schizosaccharomyces pombe, UniProt Q9UUF3)", "T1 construct": "full length aa 1-287, E. coli BL21(DE3), His10Smt3 tag removed with Ulp1, monomer by gel filtration", "T1 sequence (Q9UUF3 1-287)": "B1 chain", "test": "inhibition of p-nitrophenylphosphate hydrolysis", "type": "biochemical", "excerpt": "inhibition of p-nitrophenylphosphate hydrolysis on SpSiw14; Siw14-(1-287) | Phosphate and sulfate elicited a similar concentration-dependent inhibition of SpSiw14 phosphatase activity with an IC50"}, "Cys403": {"biological_target": "Cys403 (UniProt position 403, RPVIHCRAGVG)", "test": "chemical modification", "details": "cited from earlier work"}, "purified protein": {"substrate": "O=[N+]([O-])c1ccc(OP(=O)(O)O)cc1", "test": "purified protein", "type": "biochemical, Schizosaccharomyces pombe", "details": "25 mM Tris-acetate pH 5.0, 1 mM DTT, 37°C, no divalent cation"}, "[1]": {"substrate": "O=P(O)(O)OP(=O)(O)O", "test": "phosphate release by Malachite Green, Michaelis-Menten fit", "type": "biochemical, Schizosaccharomyces pombe", "details": "25 mM Tris-acetate pH 5.0, 1 mM DTT, 37°C, no divalent cation, apparent kcat per PPi consumed"}}, "data": [{"molecule": "O=P(O)(O)O", "note": "[inorganic phosphate]", "values": [{"measurement": "IC50", "setting": "SpSiw14; Siw14-(1-287)", "value": "~5", "unit": "mM"}]}, {"molecule": "Yersinia protein tyrosine phosphatase (Yersinia PTPase, YopH/Yop51) (Yersinia sp. (species not stated in the article; inferred Yersinia enterocolitica))", "values": [{"measurement": "pKa", "setting": "Cys403", "value": 4.67}]}, {"molecule": "O=S(=O)(O)O", "note": "[sulfate]", "values": [{"measurement": "IC50", "setting": "SpSiw14; Siw14-(1-287)", "value": "~5", "unit": "mM"}]}, {"molecule": "B1", "values": [{"measurement": "Km", "setting": "purified protein", "value": "1640 ± 180", "unit": "µM"}, {"measurement": "kcat", "setting": "purified protein", "value": "1.24 ± 0.045", "unit": "s⁻¹"}, {"measurement": "Km", "setting": "[1]", "value": "1130 ± 340", "unit": "µM"}, {"measurement": "kcat", "setting": "[1]", "value": "0.443 ± 0.0817", "unit": "s⁻¹"}]}]}
